Reference: paper PMC3168688 (American journal of medical genetics. Part B, …, 2011)

Molecular target: T1, c-Myc-tagged SLC9A9 C-terminal with both mutations (V512G and K534R) (rat, UniProt D4A7H1 494-644, V512G | K534R)
T1 sequence (looked up): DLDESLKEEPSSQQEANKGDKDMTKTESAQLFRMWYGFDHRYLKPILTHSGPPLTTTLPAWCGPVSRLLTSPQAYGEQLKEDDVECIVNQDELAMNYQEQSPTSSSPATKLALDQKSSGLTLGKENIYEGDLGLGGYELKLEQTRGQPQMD
Assay: co-IP

fold change of CHP co-precipitated against wild-type SLC9A9 C-terminal: ~2 fold
B1: Flag-tagged calcineurin homologous protein (CHP) (natural protein, rat, UniProt P61023 1-195, looked up)
chain: MGSRASTLLRDEELEEIKKETGFSHSQITRLYSRFTSLDKGENGTLSREDFQRIPELAINPLGDRIINAFFSEGEDQVNFRGFMRTLAHFRPIEDNEKSKDVNGPEPLNSRSNKLHFAFRLYDLDKDDKISRDELLQVLRMMVGVNISDEQLGSIADRTIQEADQDGDSAISFTEFVKVLEKVDVEQKMSIRFLH
